Data on three molecules can be found in patent US20240254240A1 (INSTITUTE FOR BASIC SCIENCE, published 2024).

B1: Human Tie2 ECD (residues 23-735 of human Tie2) (receptor, UniProt Q02763 23-735, looked up)
chain: AMDLILINSLPLVSDAETSLTCIASGWRPHEPITIGRDFEALMNQHQDPLEVTQDVTREWAKKVVWKREKASKINGAYFCEGRVRGEAIRIRTMKMRQQASFLPATLTMTVDKGDNVNISFKKVLIKEEDAVIYKNGSFIHSVPRHEVPDILEVHLPHAQPQDAGVYSARYIGGNLFTSAFTRLIVRRCEAQKWGPECNHLCTACMNNGVCHEDTGECICPPGFMGRTCEKACELHTFGRTCKERCSGQEGCKSYVFCLPDPYGCSCATGWKGLQCNEACHPGFYGPDCKLRCSCNNGEMCDRFQGCLCSPGWQGLQCEREGIQRMTPKIVDLPDHIEVNSGKFNPICKASGWPLPTNEEMTLVKPDGTVLHPKDFNHTDHFSVAIFTIHRILPPDSGVWVCSVNTVAGMVEKPFNISVKVLPKPLNAPNVIDTGHNFAVINISSEPYFGDGPIKSKKLLYKPVNHYEAWQHIQVTNEIVTLNYLEPRTEYELCVQLVRRGEGGEGHPGPVRRFTTASIGLPPPRGLNLLPKSQTTLNLTWQPIFPSSEDDFYVEVERRSVQKSDQQNIKVPGNLTSVLLNNLHPREQYVVRARVNTKAQGEWSEDLTAWTLSDILPPQPENIKISNITHSSAVISWTILDGYSISSITIRYKVQGKNEDQHVDVKIKNATITQYQLKGLEPETAYQVDIFAENNIGSSNPAFSHELVTLPES
notes: range 23-735; also called hTie2 ECD; hTie2
B2: hTAAB, hTie2-activating mouse monoclonal antibody (mouse IgG1) (antibody, V domains shown)
VH: QVQLQQPGAELVRPGASVKLSCKASGYSFTSYWMNWVKQRPGQGLEWIGMIHPSDSETRLNQKFMDKATLTVDKSSSTAYMQLSSPTSEDSAVYYCARGLYGNSWGQGTLVTVSA
VL: DIQMTQSPSSLSASLGERVSLTCRASQDIGISLNWLQQEPDGTIKRLIYATSSLDSGVPKRFSGSRSGSDYSLTISSLESEDFVDYYCLQYASSPYTFGGGTKLEIK
notes: Mouse IgG1 from hybridoma; Only the variable regions are tied to the whole antibody; also called mouse hTAAB; parental hTAAB
B3: 3H7H12G4 (previously reported humanized antibody 3H7) (antibody, V domains shown)
VH: QVQLVQSGAEVKKPGASVKVSCKASGYTFTSYWMNWVRQAPGQGLEWMGMIHPSDSETRLNQKFMDRVTMTRDTSTSTVYMELSSLRSEDTAVYYCARGLYGNSWGQGTLVTVSS
VL: DIQMTQSPSSLSASVGDRVTITCRASQDIGISLNWLQQEPGKAPKRLIYATSSLDSGVPKRFSGSGSGTEFTLTISSLQPEDFATYYCLQYASSPYTFGQGTKVEIK

Data set [1] concerns the molecule itself. Description: SEC-MALS (self-association). Background: In gel filtration, larger molecules generally elute earlier.
The target of data set [2] is T1, hTie2 Ig3-Fn3 D682C/N691C (constitutive Tie2 dimer) (human, UniProt Q02763 349-738, Covalent homodimer: two copies of this chain joined by two intermolecular disulfide bonds between the introduced cysteines (C682 of one chain with C691 of the other); one copy is given.).
T1 construct: The positions count on full-length human Tie2; the Ig3-Fn3 entry is used; also called Tie2 dimeric mutant; hTie2 Ig3-Fn3 N691C/D682C
T1 chain: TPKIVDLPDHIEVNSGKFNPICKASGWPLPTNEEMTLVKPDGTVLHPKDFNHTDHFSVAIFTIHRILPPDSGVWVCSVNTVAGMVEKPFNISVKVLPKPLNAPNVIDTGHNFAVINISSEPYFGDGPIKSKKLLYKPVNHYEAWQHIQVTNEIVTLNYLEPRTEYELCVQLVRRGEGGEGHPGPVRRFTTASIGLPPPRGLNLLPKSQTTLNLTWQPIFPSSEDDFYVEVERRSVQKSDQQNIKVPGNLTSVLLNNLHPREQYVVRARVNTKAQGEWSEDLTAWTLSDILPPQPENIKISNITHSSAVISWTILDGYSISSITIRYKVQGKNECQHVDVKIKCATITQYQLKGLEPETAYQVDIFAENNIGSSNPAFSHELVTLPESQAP
Description: size-exclusion chromatography and negative-stain EM of the complex.
Description: The two residues D682 and N691 involved in the homotypic Fn3-Fn3′ interaction were mutated to cysteines (D682C and N691C) to introduce a disulfide bond (FIGS. 6d and e). […] After removal of aggregates by SEC, the structural arrangement of the resulting complex (peak of the shoulder) was examined using negative-stain electron microscopy (EM) (FIGS. 6f and 7).

The target in data set [3] is B1. Description: SPR (Biacore T200), hTie2 ECD amine-coupled on CM5, antibody as analyte, 1:1 model. The protocol:
HEPES-buffered saline (0.01 M HEPES and 0.15 M NaCl) containing 3 mM EDTA (ethylenediaminetetraacetic acid) and 0.05% (v/v) P20 detergent (HBS-EP+) was used as reaction and running buffer (BR100669, GE Healthcare). Human Tie2 ECD (produced in-house; residues 23-735 of human Tie2, GenBank accession number: AAH35514.2) was immobilized on the surface of a CM5 sensor chip by amine coupling using 10 mM acetate at a pH of 5.5. […] Analytes bound to the sensor chips were dissociated by washing with HBS-EP+running buffer for 300 seconds. Both association (Kₒₙ, M⁻¹s⁻¹) and dissociation (Koff, s⁻¹) constants were measured at 300-second intervals. The equilibrium dissociation constant (KD, M) was calculated as the ratio of off-rate to on-rate (Koff/kₒₙ). Kinetic parameters were determined with the global fitting function of Biacore Insight Evaluation Software using a 1:1-binding model.
After purification, binding kinetics of the obtained antibodies to hTie2 ECD were evaluated using SPR.
A general note: Surface plasmon resonance follows binding to a sensor surface in real time, without labels.

Data set [4] addresses B1. Description: SPR (Biacore), hTie2 ECD immobilised on the chip (y axis 'RU (Tie2 ECD)'), antibody as analyte at 128, 256, 512, 1024 and 2048 nM, 1:1 binding model [panel i].

In the case of B1, the binding result in data set [1] is “no binding (tested: 1 mg/ml)”.
The Kd is the concentration at which binding is half-saturated. Broadly, the koff is a measure of how fast the partners let go of each other. A high value points to a short-lived complex. Usually kon stands for the rate constant with which the complex forms. A higher kon goes with fast association. Regarding B2, the binding result in data set [2] is on record as “binds”. In data set [3], this molecule gave a Kd of 0.0042 µM, a koff of 0.0006 s⁻¹ and a kon of 140000 M⁻¹ s⁻¹.
As for B3, in data set [4], the Kd amounted to 1.1 µM, the koff came to 0.003 s⁻¹ and the kon turned out to be 2800 M⁻¹ s⁻¹.
